Assay results as given in the supplement of paper PMC9112550, “Optimization of the antimicrobial peptide Bac7 by deep mutational scanning” (BMC Biology, 2022).

System: Escherichia coli TOP10
Test: shrunken log2 fold change of peptide-encoding DNA abundance (4.5 h post-induction vs induction); higher = less antimicrobial activity (less host growth inhibition)
Settings: time post-induction: 4.5 h; library: site-saturation at positions 5, 18, 19, 20
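Further: peptides expressed intracellularly from a pBAD plasmid library in pooled LB shake-flask culture, induced with 0.3% L-arabinose, DNA abundance read by NGS, three biological replicates, DESeq2 with apeglm shrinkage.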

Row | Sequence | shrunken log2 fold change
1 | RRIRSRPPRLPRPRPRPSDDPRP | -0.274
2 | RRIRGRPPRLPRPRPRPYTDPRP | -0.417
3 | RRIRLRPPRLPRPRPRPYHFPRP | -0.26
4 | RRIRKRPPRLPRPRPRPCVPPRP | -0.14
5 | RRIRVRPPRLPRPRPRPLKIPRP | -0.0769
6 | RRIRCRPPRLPRPRPRPIRLPRP | -0.0542
7 | RRIRNRPPRLPRPRPRPCFPPRP | -0.312
8 | RRIRWRPPRLPRPRPRPNPFPRP | 0.208
9 | RRIRARPPRLPRPRPRPCFVPRP | -0.0979
10 | RRIRHRPPRLPRPRPRPTDFPRP | -0.0704
11 | RRIRVRPPRLPRPRPRPNMRPRP | -0.124
12 | RRIRTRPPRLPRPRPRPKHNPRP | -0.362
13 | RRIRSRPPRLPRPRPRPSAEPRP | 0.567
14 | RRIRQRPPRLPRPRPRPTIYPRP | -0.552
15 | RRIRNRPPRLPRPRPRPYYRPRP | 0.0545
16 | RRIRFRPPRLPRPRPRPIWKPRP | 0.248
17 | RRIRERPPRLPRPRPRPCCWPRP | 0.185
18 | RRIRNRPPRLPRPRPRPNAIPRP | -0.0211
19 | RRIRDRPPRLPRPRPRPQQSPRP | 0.0846
20 | RRIRRRPPRLPRPRPRPLAAPRP | 0.874
21 | RRIRQRPPRLPRPRPRPLVRPRP | 0.0989
22 | RRIRIRPPRLPRPRPRPHLIPRP | -0.245
23 | RRIRRRPPRLPRPRPRPMCEPRP | 0.516
24 | RRIRWRPPRLPRPRPRPKAPPRP | 0.378
25 | RRIRKRPPRLPRPRPRPNALPRP | 0.301

Row | Sequence | shrunken log2 fold change
26 | RRIRQRPPRLPRPRPRPQMAPRP | -0.065
27 | RRIRSRPPRLPRPRPRPNKVPRP | -0.283
28 | RRIRHRPPRLPRPRPRPEGMPRP | -0.0777
29 | RRIRVRPPRLPRPRPRPYPNPRP | 0.0262
30 | RRIRPRPPRLPRPRPRPSQMPRP | 0.185
31 | RRIRLRPPRLPRPRPRPFSIPRP | -0.158
32 | RRIRIRPPRLPRPRPRPKTEPRP | -0.413
33 | RRIRWRPPRLPRPRPRPVRYPRP | 0.00421
34 | RRIRMRPPRLPRPRPRPWSHPRP | -0.0815
35 | RRIRPRPPRLPRPRPRPYLSPRP | -0.509
36 | RRIRQRPPRLPRPRPRPDSNPRP | -0.382
37 | RRIRLRPPRLPRPRPRPIYHPRP | -0.6
38 | RRIRWRPPRLPRPRPRPSWEPRP | -0.0924
39 | RRIRNRPPRLPRPRPRPVTSPRP | -0.469
40 | RRIRMRPPRLPRPRPRPRSHPRP | 0.407
41 | RRIRTRPPRLPRPRPRPFDFPRP | -0.271
42 | RRIRIRPPRLPRPRPRPWPKPRP | -0.122
43 | RRIRIRPPRLPRPRPRPPCHPRP | -0.463
44 | RRIRARPPRLPRPRPRPFTCPRP | 0.0835
45 | RRIRLRPPRLPRPRPRPGKNPRP | -0.304
46 | RRIRIRPPRLPRPRPRPDQVPRP | -0.117
47 | RRIRCRPPRLPRPRPRPHGKPRP | -0.15
48 | RRIRTRPPRLPRPRPRPREEPRP | 0.368
49 | RRIRTRPPRLPRPRPRPYWCPRP | -0.53
50 | RRIRWRPPRLPRPRPRPSMMPRP | 0.157
